Laboratory results published in article PMC8335659.

Target: GST-STG^9D
Test: pull-down; purified GST fusion of the STG C terminus incubated 1 h at 4 °C with lysate of HEK293T cells expressing FLAG-tagged μ2 or μ3, with or without 500 μM MPR^AA or MPR^DD peptide; glutathione Sepharose; blots with anti-FLAG and anti-GST

B1: FLAG-tagged μ3 (natural protein)
chain: MIHSLFLINCSGDIFLEKHWKSVVSQSVCDYFFEAQEKAADVENVPPVISTPHHYLISIYRDKLFFVSVIQTEVPPLFVIEFLHRVADTFQDYFGECSEAAIKDNVVIVYELLEEMLDNGFPLATESNILKELIKPPTILRSVVNSITGSSNVGDTLPTGQLSNIPWRRAGVKYTNNEAYFDVVEEIDAIIDKSGSTVFAEIQGVIDACIKLSGMPDLSLSFMNPRLLDDVSFHPCIRFKRWESERVLSFIPPDGNFRLISYRVSSQNLVAIPVYVKHSISFKENSSCGRFDITIGPKQNMGKTIEGITVTVHMPKVVLNMNLTPTQGSYTFDPVTKVLAWDVGKITPQKLPSLKGLVNLQSGAPKPEENPNLNIQFKIQQLAISGLKVNRLDMYGEKYKPFKGVKYVTKAGKFQVRT
B1 showed a percent of μ3 pulled down (GST-STG^9A = 100%) of 21%.
